Measured values: patent publication US20050153894 (published 2005)
Square brackets hold non-standard residues; d marks the D form. Ends that are not written are not given here.

Key:
[1] = target: cyclin A (human, UniProt P20248); assay: competition, immobilised p21 peptide
[2] = target: cyclin D1 (human, UniProt P24385); assay: competition
Chain of cyclin D1 (P24385 whole entry): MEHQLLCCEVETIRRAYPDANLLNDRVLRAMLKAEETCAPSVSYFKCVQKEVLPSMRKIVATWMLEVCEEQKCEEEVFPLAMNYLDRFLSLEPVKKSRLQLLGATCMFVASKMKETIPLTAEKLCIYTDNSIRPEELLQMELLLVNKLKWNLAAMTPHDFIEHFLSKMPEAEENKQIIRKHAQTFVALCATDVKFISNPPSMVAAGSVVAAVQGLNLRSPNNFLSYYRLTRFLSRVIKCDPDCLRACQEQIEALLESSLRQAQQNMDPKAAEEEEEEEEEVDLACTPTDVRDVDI

Chain of cyclin A (P20248 whole entry): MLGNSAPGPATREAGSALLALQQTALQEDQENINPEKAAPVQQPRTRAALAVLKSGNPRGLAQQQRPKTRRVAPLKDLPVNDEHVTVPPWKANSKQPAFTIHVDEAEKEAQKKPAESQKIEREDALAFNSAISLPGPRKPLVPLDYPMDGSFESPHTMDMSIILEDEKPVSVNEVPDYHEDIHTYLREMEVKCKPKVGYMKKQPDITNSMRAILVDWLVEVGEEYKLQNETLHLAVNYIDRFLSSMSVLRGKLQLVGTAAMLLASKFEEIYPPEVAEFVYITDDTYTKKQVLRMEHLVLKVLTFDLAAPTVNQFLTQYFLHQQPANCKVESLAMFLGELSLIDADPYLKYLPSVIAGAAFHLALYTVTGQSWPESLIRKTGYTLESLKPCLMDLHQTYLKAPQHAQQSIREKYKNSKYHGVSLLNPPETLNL

Binder	IC50 [1]	IC50 [2]
GST-pRb(772-928) (protein) ASTRPPTLSPIPHIPRSPYKFPSSPLRIPGGNIYISPLKSPYKISEGLPTPTKMTPRSRILVSIGESFGTSEKFQKINQMVCNSDRVLKRSAEGSNPPKPLKKLRFDIEGSDEADGSKHLPGESKFQQKLAEMTSTRTRMQKQKMNDSMDTSNKEEK	9 µM	–
SA[code U]RNLFG [p27 SAURNLFG]	–	> 200 µM

Results, then the binder that gave them:

IC50 [1]	IC50 [2]	Binder
–	134 µM	KA[code U]RRLFG [p21 N-terminus KAURRLFG]
–	20 µM	KA[code U]RRLIF [KAURRLIF]
